The results in this text go back to the supplement of paper PMC5998384.

Series [1] concerns HeLa Kyoto. As to the kind of experiment: thermal stability score vs G1/S (z-score of summed log2 fold changes over temperatures); higher = more thermally stable than in G1/S.
Series [2] has as its system HeLa Kyoto. Kind of series: solubility change mitosis vs G1/S (difference of NP-40 vs SDS log2 ratios) (log2 ratio difference); higher = more soluble in mitosis.
The test system of series [3] is HeLa Kyoto. As to the kind of experiment: melting temperature (median over replicates), in situ; higher = more thermally stable.
Series [4] concerns HeLa Kyoto. Kind of series: solubility in G1/S (NP-40 vs SDS abundance) (log2 ratio); higher = more soluble. To be noted: cell cycle stage: G1/S.
The mark [5] stands for this setting: cell cycle stage: early G1 (4.5 h after nocodazole release).
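Throughout, for melting temperature (median over replicates), in situ: HeLa Kyoto cells synchronized by double thymidine or nocodazole block, proteins quantified by TMT10plex mass spectrometry, three independent biological replicates.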
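Throughout, for solubility change mitosis vs G1/S (difference of NP-40 vs SDS log2 ratios): synchronized HeLa Kyoto cells (double thymidine block for G1/S, nocodazole release for mitosis), protein amounts in NP-40 versus SDS lysates quantified by mass spectrometry, three biological replicates.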
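Throughout, for solubility in G1/S (NP-40 vs SDS abundance): HeLa Kyoto cells arrested at G1/S by double thymidine block, proteins quantified by TMT10plex mass spectrometry in mild NP-40 versus SDS extracts, three biological replicates.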
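Throughout, for thermal stability score vs G1/S (z-score of summed log2 fold changes over temperatures): synchronized HeLa Kyoto cells, proteins quantified by TMT10plex mass spectrometry, three biological replicates, mitosis taken 0.5 h after nocodazole release, G1/S directly after double thymidine block.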

For “MARVAWGLLWLLLGSAGAQYEKYSFRGFPPEDLMPLAAAYGHALEQYEGESWRESARYLEAALRLHRLLRDSEAFCHANCSGPAPAAKPDPDGGRADEWACELRLFGRVLERAACLRRCKRTLPAFQVPYPPRQLLRDFQSRLPYQYLHYALFKANRLEKAVAAAYTFLQRNPKHELTAKYLNYYQGMLDVADESLTDLEAQPYEAVFLRAVKLYNSGDFRSSTEDMERALSEYLAVFARCLAGCEGAHEQVDFKDFYPAIADLFAESLQCKVDCEANLTPNVGGYFVDKFVATMYHYLQFAYYKLNDVRQAARSAASYMLFDPKDSVMQQNLVYYRFHRARWGLEEEDFQPREEAMLYHNQTAELRELLEFTHMYLQSDDEMELEETEPPLEPEDALSDAEFEGEGDYEEGMYADWWQEPDAKGDEAEAEPEPELA [P3H4]”, the thermal stability score came out at 0.153 in the series on HeLa Kyoto [1] (setting [5]) and 0.25 in the series with HeLa Kyoto [1] (cell cycle stage: mitosis). Besides, the “solubility change mitosis (log2)” value with HeLa Kyoto [2] is -0.0349. The results for the melting temperature in the series with HeLa Kyoto [3] (cell cycle stage: G1/S) and in the series with HeLa Kyoto [3] (cell cycle stage: mitosis) were 53.2 °C and 53.6 °C, respectively. Further, the “solubility in G1/S (log2)” value in the series on HeLa Kyoto [4] was -0.293.
For “MASACGAPGPGGALGSQAPSWYHRDLSRAAAEELLARAGRDGSFLVRDSESVAGAFALCVLYQKHVHTYRILPDGEDFLAVQTSQGVPVRRFQTLGELIGLYAQPNQGLVCALLLPVEGEREPDPPDDRDASDGEDEKPPLPPRSGSTSISAPTGPSSPLPAPETPTAPAAESAPNGLSTVSHDYLKGSYGLDLEAVRGGASHLPHLTRTLATSCRRLHSEVDKVLSGLEILSKVFDQQSSPMVTRLLQQQNLPQTGEQELESLVLKLSVLKDFLSGIQKKALKALQDMSSTAPPAPQPSTRKAKTIPVQAFEVKLDVTLGDLTKIGKSQKFTLSVDVEGGRLVLLRRQRDSQEDWTTFTHDRIRQLIKSQRVQNKLGVVFEKEKDRTQRKDFIFVSARKREAFCQLLQLMKNKHSKQDEPDMISVFIGTWNMGSVPPPKNVTSWFTSKGLGKTLDEVTVTIPHDIYVFGTQENSVGDREWLDLLRGGLKELTDLDYRPIAMQSLWNIKVAVLVKPEHENRISHVSTSSVKTGIANTLGNKGAVGVSFMFNGTSFGFVNCHLTSGNEKTARRNQNYLDILRLLSLGDRQLNAFDISLRFTHLFWFGDLNYRLDMDIQEILNYISRKEFEPLLRVDQLNLEREKHKVFLRFSEEEISFPPTYRYERGSRDTYAWHKQKPTGVRTNVPSWCDRILWKSYPETHIICNSYGCTDDIVTSDHSPVFGTFEVGVTSQFISKKGLSKTSDQAYIEFESIEAIVKTASRTKFFIEFYSTCLEEYKKSFENDAQSSDNINFLKVQWSSRQLPTLKPILADIEYLQDQHLLLTVKSMDGYESYGECVVALKSMIGSTAQQFLTFLSHRGEETGNIRGSMKVRVPTERLGTRERLYEWISIDKDEAGAKSKAPSVSRGSQEPRSGSRKPAFTEASCPLSRLFEEPEKPPPTGRPPAPPRAAPREEPLTPRLKPEGAPEPEGVAAPPPKNSFNNPAYYVLEGVPHQLLPPEPPSPARAPVPSATKNKVAITVPAPQLGHHRHPRVGEGSSSDEESGGTLPPPDFPPPPLPDSAIFLPPSLDPLPGPVVRGRGGAEARGPPPPKAHPRPPLPPGPSPASTFLGEVASGDDRSCSVLQMAKTLSEVDYAPAGPARSALLPGPLELQPPRGLPSDYGRPLSFPPPRIRESIQEDLAEEAPCLQGGRASGLGEAGMSAWLRAIGLERYEEGLVHNGWDDLEFLSDITEEDLEEAGVQDPAHKRLLLDTLQLSK [INPPL1]”, the thermal stability score with HeLa Kyoto [1] (setting [5]) turned out to be 0.612; with HeLa Kyoto [1] (cell cycle stage: mitosis) it was 2.56. In addition, in the series on HeLa Kyoto [2], the “solubility change mitosis (log2)” value was -0.119. Besides, the melting temperature in the series on HeLa Kyoto [3] (cell cycle stage: G1/S) and with HeLa Kyoto [3] (cell cycle stage: mitosis) was 48.6 °C throughout. For the same sequence, the “solubility in G1/S (log2)” value in the series with HeLa Kyoto [4] worked out at 0.0138.
With “MASESDTEEFYDAPEDVHLGGGYPVGSPGKVGLSTFKETENTAYKVGNESPVQELKQDVSKKIIESIIEESQKVLQLEDDSLDSKGKELSDQATASPIVARTDLSNIPGLLAIDQVLPEESQKAESQNTFEETELELKKCFPSDETCEKPVDETTKLTQTSSTEQLNVLETETEVLNKEAVEVKGGGDVLEPVSSDSLSTKDFAAVEEVAPAKPPRHLTPEPDIVASTKKPVPARPPPPTNFPPPRPPPPSRPAPPPRKRKSELEFETLKTPDIDVPKENITSDSLLTASMASESTVKDSQPSLDLASATSGDKIVTAQENGKAPDGQTVAGEVMGPQRPRSNSGRELTDEEILASVMIKNLDTGEEIPLSLAEEKLPTGINPLTLHIMRRTKEYVSNDAAQSDDEEKLQSQPTDTDGGRLKQKTTQLKKFLGKSVKRAKHLAEEYGERAINKVKSVRDEVFHTDQDDPSSSDDEGMPYTRPVKFKAAHGFKGPYDFDQIKVVQDLSGEHMGAVWTMKFSHCGRLLASAGQDNVVRIWALKNAFDYFNNMRMKYNTEGRVSPSPSQESLSSSKSDTDTGVCSGTDEDPDDKNAPFRQRPFCKYKGHTADLLDLSWSKNYFLLSSSMDKTVRLWHISRRECLCCFQHIDFVTAIAFHPRDDRYFLSGSLDGKLRLWNIPDKKVALWNEVDGQTKLITAANFCQNGKYAVIGTYDGRCIFYDTEHLKYHTQIHVRSTRGRNKVGRKITGIEPLPGENKILVTSNDSRIRLYDLRDLSLSMKYKGYVNSSSQIKASFSHDFTYLVSGSEDKYVYIWSTYHDLSKFTSVRRDRNDFWEGIKAHNAVVTSAIFAPNPSLMLSLDVQSEKSEGNEKSEDAEVLDATPSGIMKTDNTEVLLSADFTGAIKVFVNKRKNVS [WDR44]”, the thermal stability score was -1.63 in the series on HeLa Kyoto [1] (setting [5]) and -2.21 in the series with HeLa Kyoto [1] (cell cycle stage: mitosis). Moreover, in the series on HeLa Kyoto [2], the “solubility change mitosis (log2)” value was -0.145. For the same sequence, the melting temperature was determined as 55.7 °C with HeLa Kyoto [3] (cell cycle stage: G1/S) and 55.1 °C with HeLa Kyoto [3] (cell cycle stage: mitosis). Besides, in the series on HeLa Kyoto [4], the “solubility in G1/S (log2)” value was -0.102.
As to “MASFVTEVLAHSGRLEKEDLGTRISRLTRRVEEIKGEVCNMISKKYSEFLPSMQSAQGLITQVDKLSEDIDLLKSRIESEVRRDLHVSTGEFTDLKQQLERDSVVLSLLKQLQEFSTAIEEYNCALTEKKYVTGAQRLEEAQKCLKLLKSRKCFDLKILKSLSMELTIQKQNILYHLGEEWQKLIVWKFPPSKDTSSLESYLQTELHLYTEQSHKEEKTPMPPISSVLLAFSVLGELHSKLKSFGQMLLKYILRPLASCPSLHAVIESQPNIVIIRFESIMTNLEYPSPSEVFTKIRLVLEVLQKQLLDLPLDTDLENEKTSTVPLAEMLGDMIWEDLSECLIKNCLVYSIPTNSSKLQQYEEIIQSTEEFENALKEMRFLKGDTTDLLKYARNINSHFANKKCQDVIVAARNLMTSEIHNTVKIIPDSKINVPELPTPDEDNKLEVQKVSNTQYHEVMNLEPENTLDQHSFSLPTCRISESVKKLMELAYQTLLEATTSSDQCAVQLFYSVRNIFHLFHDVVPTYHKENLQKLPQLAAIHHNNCMYIAHHLLTLGHQFRLRLAPILCDGTATFVDLVPGFRRLGTECFLAQMRAQKGELLERLSSARNFSNMDDEENYSAASKAVRQVLHQLKRLGIVWQDVLPVNIYCKAMGTLLNTAISEVIGKITALEDISTEDGDRLYSLCKTVMDEGPQVFAPLSEESKNKKYQEEVPVYVPKWMPFKELMMMLQASLQEIGDRWADGKGPLAAAFSSSEVKALIRALFQNTERRAAALAKIK [ZW10]”, the thermal stability score in the series with HeLa Kyoto [1] (setting [5]) was found to be 0.485; in the series with HeLa Kyoto [1] (cell cycle stage: mitosis), 1.13. Further, in the series with HeLa Kyoto [2], the “solubility change mitosis (log2)” value is -0.19. The melting temperature in the series with HeLa Kyoto [3] (cell cycle stage: G1/S) amounted to 49.6 °C; with HeLa Kyoto [3] (cell cycle stage: mitosis) it was 49.5 °C. Moreover, the “solubility in G1/S (log2)” value in the series on HeLa Kyoto [4] is -0.218.
